Source: PMC7755894

Target: recombinant hCD25 (human IL-2Rα) (human) (UniProt P01589)
UniProt P01589, sequence (P01589 22-240): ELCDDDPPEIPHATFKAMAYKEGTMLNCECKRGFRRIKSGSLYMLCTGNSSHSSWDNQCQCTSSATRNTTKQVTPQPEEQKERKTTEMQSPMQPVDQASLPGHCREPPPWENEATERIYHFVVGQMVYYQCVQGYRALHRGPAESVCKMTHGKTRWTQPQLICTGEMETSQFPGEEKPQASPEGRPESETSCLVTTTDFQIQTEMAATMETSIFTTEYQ

NARA1leukin, sequence (P60568 whole entry, looked up): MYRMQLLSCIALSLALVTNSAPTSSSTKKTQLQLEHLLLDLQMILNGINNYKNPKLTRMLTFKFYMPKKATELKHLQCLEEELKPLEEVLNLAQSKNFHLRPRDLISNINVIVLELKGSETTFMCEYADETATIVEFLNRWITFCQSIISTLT

Substance “NARA1leukin (from UniProt P60568 97-153; P60568 22-96)” has a fold decrease in pSTAT5 in human CD4+ CD25+ Treg cells (PBMCs, 15 min at 37 °C); stimulation by NARA1leukin compared to hIL-2/NARA1 complexes of 30 fold.
